This passage reports K half results from article PMC2694808.

The series concerns Hfq. The experiment in a line: EMSA. The following applies: 40 or 100 mM NH4Cl, 10 mM Tris-HCl pH 7.5, 5 mM Mg acetate, 0.1 mM DTT, 37°C (EMSA 10 min; SPR Biacore 2000). In general terms: Mobility shift assays separate free from complexed probe on a gel.

Where “and” joins values, the source holds several entries; their conditions need not be identical. Identical values can stand only once.

Consider invE RNA probe (140 nt), for which the K half is 1.7 nM and 6.2 nM.
